# Measurements published in article PMC6429369, “Characterization of Stackebrandtia nassauensis GH 20 Beta-Hexosaminidase, a Versatile Biocatalyst for Chitobiose Degradation” (International Journal of Molecular Sciences, 2019).
# B1: SnHex (Stackebrandtia nassauensis GH20 beta-N-acetylhexosaminidase) (Stackebrandtia nassauensis DSM 44728) (protein)
# chain: VADPSHAKAATPSTIPALGEWTAASGTYTYSESSRLVVDPDHADELTDEAQTAAADLAALTGTEPEVVTGEPETGDVSLALGGGEPLGAEGYSLDVGDTFAITANADAGAFYGTRTLLQLVKQDKQIPAGTATDVPKKPERGLMVDVGRKYMSVEWLKKHIKDLSYAKLNYFHLHLSDTFGFRLESETHPEVTSEDHYTKAEIRELVDLAAKYHVTLVPEIDVPGHVNAMLAQHPELQLEDQSGNKDPYFLDLSNPDAYTLVEDLIKEYLPLFPGPYWHIGADEYVGDYGKYPQLEAYAKEHYGPDAVGKDAYYGFINWANEIVRDGGKTTRMWNDGIKEGDGTIAPEANIVVDYWSTHGIDPQKLLDRGHTVMNASWTPTYYVLGGTDIDRRWLYEDWNPDLFEKTLTIDDPKRNLGSKIHVWCDHPDAQTEDQITEGIRLPLRGLAQQTWGSPKLVEGYDDFVAIDDAIGRAPGFSSL
# notes: full ORF, 1578 bp, 526 residues, about 58 kDa; pET-30a in E. coli BL21(DE3) lacZ-; Ni-NTA and anion exchange; N-terminal His/thrombin/S-tag/enterokinase by cloning (text elsewhere says C-terminal His6), tags kept; primers translate to N-term VADPSH (after ATG), C-term GFSSL-stop
# Experiments:
# purified protein [1] = substrate: CC(=O)N[C@H]1[C@H](Oc2ccc([N+](=O)[O-])cc2)O[C@H](CO)[C@H](O)[C@@H]1O; test: purified protein; format: biochemical, Stackebrandtia nassauensis; conditions: 50 mM phosphate-citric acid buffer pH 6.0, 37 °C, substrate 0.01-10 mM
# purified protein [2] = substrate: CC(=O)N[C@H]1[C@H](Oc2ccc([N+](=O)[O-])cc2)O[C@H](CO)[C@@H](O)[C@@H]1O; test: purified protein; format: biochemical, Stackebrandtia nassauensis; conditions: 50 mM phosphate-citric acid buffer pH 6.0, 37 °C, substrate 0.01-10 mM
protein,measurement,setting,value
B1,Km,purified protein [1],3290 ± 320 µM
same,Vmax,purified protein [1],44 µM/min/mg
same,kcat,purified protein [1],0.712 ± 0.0477 s⁻¹
same,kcat/Km,purified protein [1],217 ± 38.3 M⁻¹ s⁻¹
same,Km,purified protein [2],2470 ± 50 µM
same,Vmax,purified protein [2],57 µM/min/mg
same,kcat,purified protein [2],0.917 ± 0.0615 s⁻¹
same,kcat/Km,purified protein [2],372 ± 33.3 M⁻¹ s⁻¹
